Results reported in patent US20180251562A1 (XOMA US, published 2018).
Positions count from the first letter of the chain named. Values belong to the binder of their own block, whether it stands above or below them.

How the values were obtained:
[1] = target: T1, cynomolgus insulin receptor (INSR) on CHOK1 cells (cyno, UniProt A0A7N9D6H3 48-1390); test: flow cytometry on CHOK1 cells expressing the INSR ortholog; Fab, anti-human kappa FITC detection
T1 construct: whole, on cells; CHOK1 cells over-expressing cyno INSR; also called cynomologous INSR ortholog; monkey INSR

[2] = target: T2, rat insulin receptor (INSR) on CHOK1 cells (rat, UniProt P15127 27-1383); test: as above
T2 construct: whole, on cells; CHOK1 cells over-expressing rat INSR; also called rat INSR ortholog

[3] = target: T3, human insulin receptor (INSR) on CHOK1 cells (human, UniProt P06213 28-1382); test: as above
T3 construct: whole, on cells; CHOK1 cells over-expressing human INSR; also called human INSR; hINSR

[4] = target: T4, minipig insulin receptor (INSR) on CHOK1 cells (minipig, UniProt F1SCL0 28-758; F1SCL0 763-1382); test: as above
T4 construct: Cells expressing minipig INSR; also called minipig INSR

[5] = target: T5, solubilized human INSR (B isoform) from CHO-hINSR-B cells, without insulin (human, UniProt P06213 28-1382); test: SPR (ProteOn XPR36), solubilized INSR-B captured by CT-3 mAb, Fab injected, -insulin
T5 construct: mature; Detergent-solubilized full-length receptor in cell lysate, captured on the SPR chip by its carboxy-terminal part; also called solubilized INSR

[6] = target: T1, cynomolgus insulin receptor (INSR) on …; test: cell-based or functional assay
[7] = target: T2, rat insulin receptor (INSR) on CHOK1 …; test: cell-based or functional assay
[8] = target: T3, human insulin receptor (INSR) on CHOK1 …; test: cell-based or functional assay
[9] = target: T4, minipig insulin receptor (INSR) on …; test: cell-based or functional assay
[10] = target: T1, cynomolgus insulin receptor (INSR) on …; test: flow cytometry on CHOK1 cells expressing the INSR ortholog; IgG, anti-human IgG APC detection
[11] = target: T2, rat insulin receptor (INSR) on CHOK1 …; test: as above
[12] = target: T3, human insulin receptor (INSR) on CHOK1 …; test: as above
[13] = target: T4, minipig insulin receptor (INSR) on …; test: as above
[14] = target: T6, Recombinant human insulin receptor (B form) ECD (R&D Systems) (human, UniProt P06213 28-956, limits assumed); test: SPR (Biacore 2000), INSR-ECD immobilised; relative to 247.2.018 Fab
T6 construct: extracellular domain; also called INSR-ECD; h-INSR

[15] = target: T3, human insulin receptor (INSR) on CHOK1 …; test: binding to CHO cells expressing human INSR; 1st column headed CHO Human INSR; quantity and unit not printed [cont'd]
[16] = target: T6, Recombinant human insulin receptor (B …); test: SPR (Biacore 2000), INSR-ECD immobilised, purified Fab injected, 1:1 fit [cont'd]
[17] = target: T2, rat insulin receptor (INSR) on CHOK1 …; test: binding to CHO cells expressing rat INSR; 1st column headed CHO Rat INSR; quantity and unit not printed [cont'd]
[18] = target: T1, cynomolgus insulin receptor (INSR) on …; test: binding to CHO cells expressing cyno INSR; 1st column headed CHO Cyno INSR; quantity and unit not printed [cont'd]
[19] = target: T2, rat insulin receptor (INSR) on CHOK1 …; test: binding to CHO cells expressing rat INSR; 2nd column headed CHO Rat INSR (the 1st column's numbers with more digits); quantity and unit not printed [cont'd]
[20] = target: T1, cynomolgus insulin receptor (INSR) on …; test: binding to CHO cells expressing cyno INSR; 2nd column headed CHO Cyno INSR (same numbers as the 1st); quantity and unit not printed [cont'd]
[21] = target: T6, Recombinant human insulin receptor (B …); test: SPR (Biacore 2000), INSR-ECD immobilised, purified Fab injected, 1:1 fit
[22] = target: T3, human insulin receptor (INSR) on CHOK1 …; test: binding to CHO cells expressing human INSR; 2nd column headed CHO Human INSR; quantity and unit not printed [cont'd]

EC50 [1]: 93 nM
EC50 [2]: 11.8 nM
EC50 [3]: 34.8 nM
EC50 [4]: 39.8 nM
Kd [5]: 56 nM
koff [5]: 0.00211 s⁻¹
kon [5]: 37400 M⁻¹ s⁻¹
EC50 (nM), pAKT signaling assay [6]: 82.4 nM
EC50 (nM), pAKT signaling assay [7]: 46.6 nM
EC50 (nM), pAKT signaling assay [8]: 44 nM
EC50 (nM), pAKT signaling assay [9]: 20.7 nM
B1: XPA.15.247 Fab (Fab, V domains shown)
VH: EVQLVETGGGVVQPGRSLRLSCAASGFTFSSYAMHWVRQAPGKGLEWVAVISYDGSNKYYADSVKGRFTISRDNSKNTLYLQMNSLRAEDTAVYYCARHEWGFGMDVWGQGTTVTVSS
VL: DVVMTQSPLSLSVTLGQPASISCRSSLSLVYGDENTYLNWFQQRPGQSPRRLLYKVSDRDSGVPDRFSGSGSGTDFTLKISRVEADDVGVYYCMQGTHWPYTFGQGTKLEIKR
notes: Monomeric Fab; also called Fab247; XPA.15.247 parent Fab

EC50 (nM), pAKT signaling assay [6]: 1.3 nM
EC50 (nM), pAKT signaling assay [7]: 3.1 nM
EC50 (nM), pAKT signaling assay [8]: 1.5 nM
EC50 (nM), pAKT signaling assay [9]: 1.7 nM
EC50 [10]: 3.3 nM
EC50 [11]: 1.3 nM
EC50 [12]: 1 nM
EC50 [13]: 1.5 nM
B2: XPA.15.247.2.011 IgG (antibody, V domains shown)
VH: B1 VH with D54S, M105F, V107Y
VL: B1 VL with S12P, L27H, E34G, Q42H, L53I, D58N, S68A, V88F, Y91F
notes: Tested as IgG; also called XPA.15.247.011

EC50 [1]: 17.2 nM
EC50 [2]: 1.9 nM
EC50 [3]: 2.7 nM
EC50 [4]: 5.8 nM
Kd [5]: 10 nM
koff [5]: 0.000705 s⁻¹
kon [5]: 70400 M⁻¹ s⁻¹
EC50 (nM), pAKT signaling assay [6]: 6.2 nM
EC50 (nM), pAKT signaling assay [7]: 7.8 nM
EC50 (nM), pAKT signaling assay [8]: 5 nM
EC50 (nM), pAKT signaling assay [9]: 4.4 nM
B3: XPA.15.247.2.011 Fab (Fab, V domains shown)
VH: B1 VH with D54S, M105F, V107Y
VL: B1 VL with S12P, L27H, E34G, Q42H, L53I, D58N, S68A, V88F, Y91F
notes: Fab; also called XPA.15.247.011

Fold KD Improvement [14]: 6.4 fold
CHO Human INSR [15]: 1.96
koff [16]: 0.00017 s⁻¹
kon [16]: 110000 M⁻¹ s⁻¹
CHO Rat INSR [17]: 0.661
CHO Cyno INSR [18]: 0.911
CHO Rat INSR [19]: 0.66
CHO Cyno INSR [20]: 0.911
Kd [21]: 1.5 nM
CHO Human INSR [22]: 0.838
B4: RHF.15.05896.020 (Fab, V domains shown)
VH: B1 VH with T28K, Y53W, D54S, M105F, V107E
VL: DVVMTQSPLSLPVTLGQPASISCRSSQSLVYGDGNTYLNWFQQRPGQSPRRLIYKVSNRDSGVPDRFSGSGSGTEFTLKISRVEAEDVGVYFCMQGTYWPGTFGGGTKLEIKR
notes: Untagged Fab

Fold KD Improvement [14]: 5.2 fold
CHO Human INSR [15]: 2.95
koff [16]: 0.00024 s⁻¹
kon [16]: 130000 M⁻¹ s⁻¹
Kd [21]: 1.9 nM
B5: RHF.15.05896.006 (Fab, V domains shown)
VH: B1 VH with T28K, D54S, S56D, M105F, V107R
VL: B4 VL
notes: Untagged Fab

Fold KD Improvement [14]: 5.4 fold
CHO Human INSR [15]: 3.04
koff [16]: 0.00022 s⁻¹
kon [16]: 120000 M⁻¹ s⁻¹
Kd [21]: 1.8 nM
B6: RHF.15.05896.036 (Fab, V domains shown)
VH: B1 VH with T28K, D54S, S56G, M105F, V107L
VL: B4 VL
notes: Untagged Fab

Fold KD Improvement [14]: 6.9 fold
CHO Human INSR [15]: 2.26
koff [16]: 0.00017 s⁻¹
kon [16]: 120000 M⁻¹ s⁻¹
Kd [21]: 1.4 nM
B7: RHF.15.05896.056 (Fab, V domains shown)
VH: B1 VH with T28K, D54G, M105F, V107E
VL: B4 VL
notes: Untagged Fab

Fold KD Improvement [14]: 8.6 fold
CHO Human INSR [15]: 3.1
koff [16]: 0.0001 s⁻¹
kon [16]: 91000 M⁻¹ s⁻¹
Kd [21]: 1.1 nM
B8: RHF.15.05896.032 (Fab, V domains shown)
VH: B1 VH with T28K, D54S, S56E, M105F, V107E
VL: B4 VL
notes: Untagged Fab

Fold KD Improvement [14]: 3.3 fold
CHO Human INSR [15]: 4.35
koff [16]: 0.00025 s⁻¹
kon [16]: 84000 M⁻¹ s⁻¹
Kd [21]: 3 nM
B9: RHF.15.05896.015 (Fab, V domains shown)
VH: B1 VH with T28K, D54S, S56R, M105Q, V107Y
VL: B4 VL
notes: Untagged Fab

EC50 (nM), pAKT signaling assay [6]: 1.7 nM
EC50 (nM), pAKT signaling assay [7]: 4.2 nM
EC50 (nM), pAKT signaling assay [8]: 2.1 nM
EC50 (nM), pAKT signaling assay [9]: 2.3 nM
EC50 [10]: 1.1 nM
EC50 [11]: 0.7 nM
EC50 [12]: 0.7 nM
EC50 [13]: 0.9 nM
B10: XPA.15.247.2.014 IgG (antibody, V domains shown)
VH: B1 VH with D54S, M105F, V107Y
VL: B4 VL with N58K, E75D, F92Y, G101M
notes: Tested as IgG; also called XPA.15.247.014

Fold KD Improvement [14]: 8.3 fold
CHO Human INSR [15]: 1.25
koff [16]: 0.00038 s⁻¹
kon [16]: 320000 M⁻¹ s⁻¹
CHO Rat INSR [17]: 0.533
CHO Cyno INSR [18]: 0.854
CHO Rat INSR [19]: 0.533
CHO Cyno INSR [20]: 0.854
Kd [21]: 1.2 nM
CHO Human INSR [22]: 0.762
B11: RHF.15.05896.068 (Fab, V domains shown)
VH: B1 VH with T28K, D54S, S56G, M105Y, V107Y
VL: B4 VL
notes: Untagged Fab

EC50 [1]: 10.2 nM
EC50 [2]: 1.7 nM
EC50 [3]: 1.8 nM
EC50 [4]: 2.9 nM
Kd [5]: 3.7 nM
koff [5]: 0.000705 s⁻¹
kon [5]: 137000 M⁻¹ s⁻¹
EC50 (nM), pAKT signaling assay [6]: ~15.1 nM
EC50 (nM), pAKT signaling assay [7]: ~15.6 nM
EC50 (nM), pAKT signaling assay [8]: 9.6 nM
EC50 (nM), pAKT signaling assay [9]: 8.4 nM
B12: XPA.15.247.2.014 Fab (Fab, V domains shown)
VH: B1 VH with D54S, M105F, V107Y
VL: B4 VL with N58K, E75D, F92Y, G101M
notes: Fab; also called XPA.15.247.014

Fold KD Improvement [14]: 7.4 fold
CHO Human INSR [15]: 2.52
koff [16]: 0.00017 s⁻¹
kon [16]: 130000 M⁻¹ s⁻¹
Kd [21]: 1.3 nM
B13: RHF.15.05896.044 (Fab, V domains shown)
VH: B1 VH with T28K, Y53N, D54S, M105F, V107K
VL: B4 VL
notes: Untagged Fab
